Reference: patent US20250277022A1 (STAIDSON BEIJING BIOPHARMACEUTICALS, published 2025)
One block for each binder: values may come before it.

Assays:
[1] = target: T1, cynomolgus monkey TSLP (cynomolgus monkey, UniProt A0A7N9CAT7 29-159); assay: ELISA, plate coated with cynomolgus monkey TSLP
T1 construct: also called cynomolgus TSLP; recombinant cynomolgus monkey TSLP

[2] = target: T1, cynomolgus monkey TSLP; assay: solution equilibrium titration, MSD electrochemiluminescence
[3] = target: T2, human TSLP (human, UniProt Q969D9 29-159); assay: ELISA, biotin labeled full length TSLP on streptavidin plate; full length isoform TSLP, not short isoform
T2 construct: used biotinylated in some assays; also called hTSLP; recombinant human TSLP
Experimental: Binding of anti-TSLP antibodies to short form TSLP was determined using an ELISA method. […] A rabbit serum was used as a negative control. Briefly, a 96-well plate was coated with 100 μl of 1 μg/mL streptavidin overnight. The plates were washed with PBST, then 100 μl of 1 μg/ml biotin labeled short TSLP or long TSLP was added to the plates, incubated at 37° C. for 1 hour. […] After incubating the plates for an hour at 37° C., followed by washing with PBST for 6 times, the secondary antibody anti-human-Fc-HRP or anti-rabbit-Fc-AP was added to each well. After incubation for an hour under 37° C., the plate was washed for 3 times using PBST. TMB or pNPP was then added at 100 μL/well and incubated for 10-20 minutes at room temperature. 2 M H₂SO₄ or 3 M NaOH was used to stop the reaction. The ELISA results were then analyzed and the binding curves were generated by GraphPad Prism 5 software (GraphPad Software).

[4] = target: T2, human TSLP; assay: cell-based or functional assay
[5] = target: T1, cynomolgus monkey TSLP; assay: ELISA, plate coated with cynomolgus monkey TSLP, test antibodies as human IgG1
Experimental: (§1) ELISA Screening: Monoclonal scFv antibodies were selected and subjected to ligand binding assays. The first assay was designed to identify scFv antibodies that bound human TSLP and/or cynomolgus TSLP. Briefly, a 96-well plate was coated with human TSLP or cynomolgus TSLP in PBS at 0.1 μg/well and left overnight at 4° C. Before loading the scFv antibodies, the plates were washed with TBST, blocked for 1-2 hours at 37° C. using 5% milk and washed again with TBST. Each scFv sample was first diluted to 40 μg/mL, and 150 μL was added to the first row of wells. The 40 μg/mL scFv samples were then serially diluted at a 1:3 ratio and added to the remaining wells. After incubating for an hour at 37° C., followed by washing with TBST for 6 times, 100 μl of the secondary antibody (HRP labeled mouse anti-flag (1:2500)) was added to each well. After incubation for an hour under 37° C., the plate was washed for 3 times using TBST. TMB was then added at 100 μL/well and incubated for 10-20 minutes at 37° C. 2 M H₂SO₄ was used to stop the reaction. The ELISA results (OD405) were then analyzed and the binding curves were generated by PRISM.

[6] = target: T2, human TSLP; assay: ELISA, plate coated with human TSLP, test antibodies as human IgG1
Experimental: as §1

T1 sequence (A0A7N9CAT7 entry or part of it): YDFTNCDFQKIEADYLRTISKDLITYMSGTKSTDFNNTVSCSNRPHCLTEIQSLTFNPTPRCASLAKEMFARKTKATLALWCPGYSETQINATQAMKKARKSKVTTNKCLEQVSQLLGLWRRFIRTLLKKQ
T2 sequence (Q969D9 29-159 R127A/R130S limits assumed): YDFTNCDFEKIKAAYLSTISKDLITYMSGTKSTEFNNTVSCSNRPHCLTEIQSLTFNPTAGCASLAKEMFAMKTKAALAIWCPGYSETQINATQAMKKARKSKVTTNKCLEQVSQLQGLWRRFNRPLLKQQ

EC50 (read off the curve) [1]: ~0.5 µg/mL
Kd [2]: 0.0176 nM
B1: AMG157 (antibody, V domains shown)
VH: QMQLVESGGGVVQPGRSLRLSCAASGFTFRTYGMHWVRQAPGKGLEWVAVIWYDGSNKHYADSVKGRFTITRDNSKNTLNLQMNSLRAEDTAVYYCARAPQWELVHEAFDIWGQGTMVTVSS
VL: SYVLTQPPSVSVAPGQTARITCGGNNLGSKSVHWYQQKPGQAPVLVVYDDSDRPSWIPERFSGSNSGNTATLTISRGEAGDEADYYCQVWDSSSDHVVFGGGTKLTVLG

EC50 [3]: 0.0335 µg/mL
IC50, inhibition of human TSLP-induced Stat5 activation (Stat5-luciferase reporter, Ba/F3 cells with hTSLPR and hIL7Ra) [4]: 0.0193 µg/mL
EC50 (read off the curve) [5]: ~0.5 µg/mL
EC50 (read off the curve) [6]: ~0.03 µg/mL
B2: TSLP-01 (antibody, V domains shown)
VH: QVQLQESGPGLVKPSETLSLTCAVSGYSISSGYGWSWIRQPPGKGLEWIGYISYYGSISYNPSLKSRVTISRDTSKNQFSLKLSSVTAADTAVYYCARTNLLYFDSWGQGTLVTVSS
VL: EIVMTQSPATLSLSPGERATLSCRASQSVSNNLAWYQQKPGQAPRLLIYDASSRATGIPARFSGSGSGTDFTLTISSLEPEDFAVYYCQQYSDWPQYTFGQGTKVEIK
notes: also called parent antibody TSLP-01
